Source: the supplement of paper PMC9112550, “Optimization of the antimicrobial peptide Bac7 by deep mutational scanning” (BMC Biology, 2022)

System: Escherichia coli TOP10
Experiment: shrunken log2 fold change of peptide-encoding DNA abundance (4.5 h post-induction vs induction); higher = less antimicrobial activity (less host growth inhibition)
Conditions: time post-induction: 4.5 h; library: site-saturation at positions 5, 18, 19, 20
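Note: peptides expressed intracellularly from a pBAD plasmid library in pooled LB shake-flask culture, induced with 0.3% L-arabinose, DNA abundance read by NGS, three biological replicates, DESeq2 with apeglm shrinkage.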

Sequence	shrunken log2 fold change
RRIRRRPPRLPRPRPRPRDHPRP	0.397
RRIRARPPRLPRPRPRPSDYPRP	-0.108
RRIRTRPPRLPRPRPRPKNEPRP	0.715
RRIRGRPPRLPRPRPRPLEGPRP	0.0436
RRIRARPPRLPRPRPRPAPIPRP	0.448
RRIRLRPPRLPRPRPRPGGIPRP	-0.0154
RRIRLRPPRLPRPRPRPYYPPRP	-0.117
RRIRMRPPRLPRPRPRPSSNPRP	-0.142
RRIRWRPPRLPRPRPRPVSKPRP	0.0519
RRIRDRPPRLPRPRPRPMSGPRP	-0.0837
RRIRCRPPRLPRPRPRPNRVPRP	-0.206
RRIRLRPPRLPRPRPRPGSPPRP	0.475
RRIRVRPPRLPRPRPRPFKRPRP	-0.165
RRIRERPPRLPRPRPRPVHEPRP	-0.00127
RRIRNRPPRLPRPRPRPFPRPRP	0.0857
RRIRERPPRLPRPRPRPPIAPRP	0.13
RRIRVRPPRLPRPRPRPASSPRP	-0.122
RRIRYRPPRLPRPRPRPWRHPRP	-0.116
RRIRDRPPRLPRPRPRPSWYPRP	0.0397
RRIRTRPPRLPRPRPRPTKFPRP	-0.638

Sequence	shrunken log2 fold change
RRIRDRPPRLPRPRPRPPSTPRP	-0.0415
RRIRPRPPRLPRPRPRPMNEPRP	-0.0529
RRIRKRPPRLPRPRPRPEQKPRP	0.125
RRIRERPPRLPRPRPRPYLFPRP	-0.137
RRIRQRPPRLPRPRPRPPFYPRP	-0.0349
RRIRCRPPRLPRPRPRPTQIPRP	0.452
RRIRCRPPRLPRPRPRPHFHPRP	-0.712
RRIRERPPRLPRPRPRPSRAPRP	0.12
RRIRPRPPRLPRPRPRPPIEPRP	-0.0597
RRIRIRPPRLPRPRPRPYLFPRP	-0.376
RRIRSRPPRLPRPRPRPIWCPRP	-0.288
RRIRNRPPRLPRPRPRPIHCPRP	-0.244
RRIRVRPPRLPRPRPRPTWPPRP	0.446
RRIRWRPPRLPRPRPRPSCHPRP	-0.066
RRIRRRPPRLPRPRPRPKGNPRP	0.0579
RRIRFRPPRLPRPRPRPSACPRP	0.0977
RRIRDRPPRLPRPRPRPPRKPRP	0.758
RRIRFRPPRLPRPRPRPHIRPRP	-0.113
RRIRTRPPRLPRPRPRPCYKPRP	-0.06
RRIRWRPPRLPRPRPRPHVLPRP	-0.096

Sequence	shrunken log2 fold change
RRIRPRPPRLPRPRPRPNNKPRP	-0.542
RRIRPRPPRLPRPRPRPVHLPRP	0.179
RRIRDRPPRLPRPRPRPVSVPRP	-0.0329
RRIRQRPPRLPRPRPRPQGLPRP	0.0739
RRIRSRPPRLPRPRPRPMYTPRP	-0.0916
RRIRERPPRLPRPRPRPDIDPRP	-0.191
RRIRNRPPRLPRPRPRPIGNPRP	0.0106
RRIRCRPPRLPRPRPRPEKAPRP	0.0655
RRIRARPPRLPRPRPRPNSAPRP	0.00853
RRIRRRPPRLPRPRPRPMHRPRP	0.0514
RRIRNRPPRLPRPRPRPMHGPRP	-0.0225
RRIRNRPPRLPRPRPRPLAVPRP	0.0686
RRIRRRPPRLPRPRPRPDSIPRP	-0.199
RRIRYRPPRLPRPRPRPIIAPRP	-1.18
RRIRLRPPRLPRPRPRPCNWPRP	0.0532
RRIRNRPPRLPRPRPRPDMGPRP	-0.00968
RRIRARPPRLPRPRPRPYEPPRP	0.116
RRIRYRPPRLPRPRPRPRDMPRP	-0.339
RRIRHRPPRLPRPRPRPSFKPRP	-0.6
RRIRPRPPRLPRPRPRPFMPPRP	-0.793
